Experimental data: US20100150860A1 (LUNAN PHARMACEUTICAL GROUP, published 2010)

B1: recombinant chimeric protein of neutrophil inhibitory factor and hirugen (TNHH), Met-NIF-GGGGG-FPRPGSGG-Hirugen (other)
chain: MNEHNLRCPQNGTEMPGFNDSIRLQFLAMHNGYRSKLALGHISITEESESDDDDDFGFLPDFAPRASKMRYLEYDCEAEKSAYMSARNCSDSSSPPEGYDENKYIFENSNNISEAALKAMISWAKEAFNLNKTKEGEGVLYRSNHDISNFANLAWDAREKFGCAVVNCPLGEIDDETNHDGETYATTIHVVCHYPKINKTEGQPIYKVGTPCDDCSEYTKKADNTTSADPVCIPDDGVCFIGSKADYDSKEFYRFRELGGGGGFPRPGSGGNGDFEEIPEEYL
B2: NIF-hirudin hybrid (NHH), NIF-(Gly)5-hirugen (other)
chain: NEHNLRCPQNGTEMPGFNDSIRLQFLAMHNGYRSKLALGHISITEESESDDDDDFGFLPDFAPRASKMRYLEYDCEAEKSAYMSARNCSDSSSPPEGYDENKYIFENSNNISEAALKAMISWAKEAFNLNKTKEGEGVLYRSNHDISNFANLAWDAREKFGCAVVNCPLGEIDDETNHDGETYATTIHVVCHYPKINKTEGQPIYKVGTPCDDCSEYTKKADNTTSADPVCIPDDGVCFIGSKADYDSKEFYRFRELGGGGGNGDFEEIPEEYL
B3: TNHH-G15/n3, NIF-(Gly)15-FPRP-(GSGG)3-hirugen (other)
chain: MNEHNLRCPQNGTEMPGFNDSIRLQFLAMHNGYRSKLALGHISITEESESDDDDDFGFLPDFAPRASKMRYLEYDCEAEKSAYMSARNCSDSSSPPEGYDENKYIFENSNNISEAALKAMISWAKEAFNLNKTKEGEGVLYRSNHDISNFANLAWDAREKFGCAVVNCPLGEIDDETNHDGETYATTIHVVCHYPKINKTEGQPIYKVGTPCDDCSEYTKKADNTTSADPVCIPDDGVCFIGSKADYDSKEFYRFRELGGGGGGGGGGGGGGGFPRPGSGGGSGGGSGGNGDFEEIPEEYL

Target: thrombin (of the antithrombin activity assay, species not stated)
Assay: cell-based or functional assay

Compared with B1, NGDFEEIPEEYL (not fully specified) [hirugen (printed 'Hirogen')] is lower in “antithrombin activity (ATU/mg)” value: 1200 ATU/mg for the first, 1000 ATU/mg for the second.

First: B2
Second: B3
The “antithrombin activity (ATU/mg)” value of the first is lower: 800 ATU/mg for the first, 1200 ATU/mg for the second.
